First the molecules themselves.
T1: human GIP receptor (human, UniProt P48546 22-466)
T1 sequence (looked up): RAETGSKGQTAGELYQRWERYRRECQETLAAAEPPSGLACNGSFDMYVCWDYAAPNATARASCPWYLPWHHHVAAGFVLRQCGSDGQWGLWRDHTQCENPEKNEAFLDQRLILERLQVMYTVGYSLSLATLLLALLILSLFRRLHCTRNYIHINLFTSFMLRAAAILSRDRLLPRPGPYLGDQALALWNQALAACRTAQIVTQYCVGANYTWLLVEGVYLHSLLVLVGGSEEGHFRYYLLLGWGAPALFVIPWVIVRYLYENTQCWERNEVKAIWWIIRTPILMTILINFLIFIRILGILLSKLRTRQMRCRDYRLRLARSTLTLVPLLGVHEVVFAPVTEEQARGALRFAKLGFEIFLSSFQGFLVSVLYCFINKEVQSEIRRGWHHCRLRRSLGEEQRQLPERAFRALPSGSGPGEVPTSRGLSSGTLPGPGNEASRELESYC

B1: exendin-4 derivative SEQ ID NO: 8 (peptide)
peptide: H[Aib]QGTFTSDLSKQK([γGlu-γGlu-Palmitoyl])DEQRAKLFIEWL[Aib]AGGPSSGAPPPS-NH2
modifications: N-terminus assumed
SMILES: CCCCCCCCCCCCCCCC(=O)N[C@@H](CCC(=O)N[C@@H](CCC(=O)NCCCC[C@H](NC(=O)[C@H](CCC(N)=O)NC(=O)[C@H](CCCCN)NC(=O)[C@H](CO)NC(=O)[C@H](CC(C)C)NC(=O)[C@H](CC(=O)O)NC(=O)[C@H](CO)NC(=O)[C@@H](NC(=O)[C@H](Cc1ccccc1)NC(=O)[C@@H](NC(=O)CNC(=O)[C@H](CCC(N)=O)NC(=O)C(C)(C)NC(=O)[C@@H](N)Cc1c[nH]cn1)[C@@H](C)O)[C@@H](C)O)C(=O)N[C@@H](CC(=O)O)C(=O)N[C@@H](CCC(=O)O)C(=O)N[C@@H](CCC(N)=O)C(=O)N[C@@H](CCCNC(=N)N)C(=O)N[C@@H](C)C(=O)N[C@@H](CCCCN)C(=O)N[C@@H](CC(C)C)C(=O)N[C@@H](Cc1ccccc1)C(=O)N[C@H](C(=O)N[C@@H](CCC(=O)O)C(=O)N[C@@H](Cc1c[nH]c2ccccc12)C(=O)N[C@@H](CC(C)C)C(=O)NC(C)(C)C(=O)N[C@@H](C)C(=O)NCC(=O)NCC(=O)N1CCC[C@H]1C(=O)N[C@@H](CO)C(=O)N[C@@H](CO)C(=O)NCC(=O)N[C@@H](C)C(=O)N1CCC[C@H]1C(=O)N1CCC[C@H]1C(=O)N1CCC[C@H]1C(=O)N[C@@H](CO)C(N)=O)[C@@H](C)CC)C(=O)O)C(=O)O
B2: exendin-4 derivative SEQ ID NO: 9 (peptide)
peptide: H[Aib]QGTFTSDLSKQK([γGlu-Stearoyl])DEQRAKLFIEWL[Aib]AGGPSSGAPPPS-NH2
modifications: N-terminus assumed
SMILES: CCCCCCCCCCCCCCCCCC(=O)N[C@@H](CCC(=O)NCCCC[C@H](NC(=O)[C@H](CCC(N)=O)NC(=O)[C@H](CCCCN)NC(=O)[C@H](CO)NC(=O)[C@H](CC(C)C)NC(=O)[C@H](CC(=O)O)NC(=O)[C@H](CO)NC(=O)[C@@H](NC(=O)[C@H](Cc1ccccc1)NC(=O)[C@@H](NC(=O)CNC(=O)[C@H](CCC(N)=O)NC(=O)C(C)(C)NC(=O)[C@@H](N)Cc1c[nH]cn1)[C@@H](C)O)[C@@H](C)O)C(=O)N[C@@H](CC(=O)O)C(=O)N[C@@H](CCC(=O)O)C(=O)N[C@@H](CCC(N)=O)C(=O)N[C@@H](CCCNC(=N)N)C(=O)N[C@@H](C)C(=O)N[C@@H](CCCCN)C(=O)N[C@@H](CC(C)C)C(=O)N[C@@H](Cc1ccccc1)C(=O)N[C@H](C(=O)N[C@@H](CCC(=O)O)C(=O)N[C@@H](Cc1c[nH]c2ccccc12)C(=O)N[C@@H](CC(C)C)C(=O)NC(C)(C)C(=O)N[C@@H](C)C(=O)NCC(=O)NCC(=O)N1CCC[C@H]1C(=O)N[C@@H](CO)C(=O)N[C@@H](CO)C(=O)NCC(=O)N[C@@H](C)C(=O)N1CCC[C@H]1C(=O)N1CCC[C@H]1C(=O)N1CCC[C@H]1C(=O)N[C@@H](CO)C(N)=O)[C@@H](C)CC)C(=O)O
B3: exendin-4 derivative SEQ ID NO: 11 (peptide)
peptide: H[Aib]QGTFTSDLSKQK([γGlu-Palmitoyl])DEQRAKLFIEWL[Aib]A[dA]GPSSGAPPPS-NH2
modifications: N-terminus assumed
SMILES: CCCCCCCCCCCCCCCC(=O)N[C@@H](CCC(=O)NCCCC[C@H](NC(=O)[C@H](CCC(N)=O)NC(=O)[C@H](CCCCN)NC(=O)[C@H](CO)NC(=O)[C@H](CC(C)C)NC(=O)[C@H](CC(=O)O)NC(=O)[C@H](CO)NC(=O)[C@@H](NC(=O)[C@H](Cc1ccccc1)NC(=O)[C@@H](NC(=O)CNC(=O)[C@H](CCC(N)=O)NC(=O)C(C)(C)NC(=O)[C@@H](N)Cc1c[nH]cn1)[C@@H](C)O)[C@@H](C)O)C(=O)N[C@@H](CC(=O)O)C(=O)N[C@@H](CCC(=O)O)C(=O)N[C@@H](CCC(N)=O)C(=O)N[C@@H](CCCNC(=N)N)C(=O)N[C@@H](C)C(=O)N[C@@H](CCCCN)C(=O)N[C@@H](CC(C)C)C(=O)N[C@@H](Cc1ccccc1)C(=O)N[C@H](C(=O)N[C@@H](CCC(=O)O)C(=O)N[C@@H](Cc1c[nH]c2ccccc12)C(=O)N[C@@H](CC(C)C)C(=O)NC(C)(C)C(=O)N[C@@H](C)C(=O)N[C@H](C)C(=O)NCC(=O)N1CCC[C@H]1C(=O)N[C@@H](CO)C(=O)N[C@@H](CO)C(=O)NCC(=O)N[C@@H](C)C(=O)N1CCC[C@H]1C(=O)N1CCC[C@H]1C(=O)N1CCC[C@H]1C(=O)N[C@@H](CO)C(N)=O)[C@@H](C)CC)C(=O)O
B4: exendin-4 derivative SEQ ID NO: 10 (peptide)
peptide: H[Aib]QGTFTSDLSKQK([γGlu-Palmitoyl])DEQRAKLFIEWL[Aib]AGGPSSGAPPPS-NH2
modifications: N-terminus assumed
SMILES: CCCCCCCCCCCCCCCC(=O)N[C@@H](CCC(=O)NCCCC[C@H](NC(=O)[C@H](CCC(N)=O)NC(=O)[C@H](CCCCN)NC(=O)[C@H](CO)NC(=O)[C@H](CC(C)C)NC(=O)[C@H](CC(=O)O)NC(=O)[C@H](CO)NC(=O)[C@@H](NC(=O)[C@H](Cc1ccccc1)NC(=O)[C@@H](NC(=O)CNC(=O)[C@H](CCC(N)=O)NC(=O)C(C)(C)NC(=O)[C@@H](N)Cc1c[nH]cn1)[C@@H](C)O)[C@@H](C)O)C(=O)N[C@@H](CC(=O)O)C(=O)N[C@@H](CCC(=O)O)C(=O)N[C@@H](CCC(N)=O)C(=O)N[C@@H](CCCNC(=N)N)C(=O)N[C@@H](C)C(=O)N[C@@H](CCCCN)C(=O)N[C@@H](CC(C)C)C(=O)N[C@@H](Cc1ccccc1)C(=O)N[C@H](C(=O)N[C@@H](CCC(=O)O)C(=O)N[C@@H](Cc1c[nH]c2ccccc12)C(=O)N[C@@H](CC(C)C)C(=O)NC(C)(C)C(=O)N[C@@H](C)C(=O)NCC(=O)NCC(=O)N1CCC[C@H]1C(=O)N[C@@H](CO)C(=O)N[C@@H](CO)C(=O)NCC(=O)N[C@@H](C)C(=O)N1CCC[C@H]1C(=O)N1CCC[C@H]1C(=O)N1CCC[C@H]1C(=O)N[C@@H](CO)C(N)=O)[C@@H](C)CC)C(=O)O
B5: exendin-4 derivative SEQ ID NO: 12 (peptide)
peptide: H[Aib]QGTFTSDLSKQK([γGlu-γGlu-Palmitoyl])DEQRAKLFIEWL[Aib]S[dA]GPSSGAPPPS-NH2
modifications: N-terminus assumed
SMILES: CCCCCCCCCCCCCCCC(=O)N[C@@H](CCC(=O)N[C@@H](CCC(=O)NCCCC[C@H](NC(=O)[C@H](CCC(N)=O)NC(=O)[C@H](CCCCN)NC(=O)[C@H](CO)NC(=O)[C@H](CC(C)C)NC(=O)[C@H](CC(=O)O)NC(=O)[C@H](CO)NC(=O)[C@@H](NC(=O)[C@H](Cc1ccccc1)NC(=O)[C@@H](NC(=O)CNC(=O)[C@H](CCC(N)=O)NC(=O)C(C)(C)NC(=O)[C@@H](N)Cc1c[nH]cn1)[C@@H](C)O)[C@@H](C)O)C(=O)N[C@@H](CC(=O)O)C(=O)N[C@@H](CCC(=O)O)C(=O)N[C@@H](CCC(N)=O)C(=O)N[C@@H](CCCNC(=N)N)C(=O)N[C@@H](C)C(=O)N[C@@H](CCCCN)C(=O)N[C@@H](CC(C)C)C(=O)N[C@@H](Cc1ccccc1)C(=O)N[C@H](C(=O)N[C@@H](CCC(=O)O)C(=O)N[C@@H](Cc1c[nH]c2ccccc12)C(=O)N[C@@H](CC(C)C)C(=O)NC(C)(C)C(=O)N[C@@H](CO)C(=O)N[C@H](C)C(=O)NCC(=O)N1CCC[C@H]1C(=O)N[C@@H](CO)C(=O)N[C@@H](CO)C(=O)NCC(=O)N[C@@H](C)C(=O)N1CCC[C@H]1C(=O)N1CCC[C@H]1C(=O)N1CCC[C@H]1C(=O)N[C@@H](CO)C(N)=O)[C@@H](C)CC)C(=O)O)C(=O)O

Starred links: 1 amine or outer side, 2 acyl side, 3 side chain; linkers in the order of their positions; H or OH if unused. Non-standard residues stand in square brackets, D forms with d. Groups on a side chain read outwards from the residue. No end group written: not given here. *: point of attachment. γGlu = O=C(O)[C@H](CCC(=O)[*:2])N[*:1]; Stearoyl = CCCCCCCCCCCCCCCCCC(=O)*; Palmitoyl = CCCCCCCCCCCCCCCC(=O)*; Aib = CC(C)(N)C(=O)O

In one experiment the target is T1, human GIP receptor. Kind of experiment: cell-based or functional assay.
Regarding B1, the “EC50 hGIP-R (cAMP formation)” value was determined as 2.14 nM.

On to B2, for which the “EC50 hGIP-R (cAMP formation)” value came out at 1.16 nM.

Consider B3, for which the “EC50 hGIP-R (cAMP formation)” value was found to be 13.4 nM.

As for H[Aib]QGTFTSDLSKQK([γGlu-γGlu-Palmitoyl])DEQRAKLFIEWL[Aib]KGGPSSGAPPPS-NH2 [exendin-4 derivative SEQ ID NO: 15], the “EC50 hGIP-R (cAMP formation)” value was found to be 1.85 nM.

In the case of H[Aib]QGTFTSDLSKQK([γGlu-γGlu-Palmitoyl])DEQRAKLFIEWL[Aib]SGGPSSGAPPPS-NH2 [exendin-4 derivative SEQ ID NO: 13], the “EC50 hGIP-R (cAMP formation)” value is 2.39 nM.

Turning to B4, the “EC50 hGIP-R (cAMP formation)” value worked out at 0.89 nM.

Take B5: the “EC50 hGIP-R (cAMP formation)” value was 8.29 nM.

The target in a further experiment is human glucagon receptor (human, UniProt P47871 26-477). Kind of experiment: cell-based or functional assay.
Sequence of human glucagon receptor (P47871 26-477): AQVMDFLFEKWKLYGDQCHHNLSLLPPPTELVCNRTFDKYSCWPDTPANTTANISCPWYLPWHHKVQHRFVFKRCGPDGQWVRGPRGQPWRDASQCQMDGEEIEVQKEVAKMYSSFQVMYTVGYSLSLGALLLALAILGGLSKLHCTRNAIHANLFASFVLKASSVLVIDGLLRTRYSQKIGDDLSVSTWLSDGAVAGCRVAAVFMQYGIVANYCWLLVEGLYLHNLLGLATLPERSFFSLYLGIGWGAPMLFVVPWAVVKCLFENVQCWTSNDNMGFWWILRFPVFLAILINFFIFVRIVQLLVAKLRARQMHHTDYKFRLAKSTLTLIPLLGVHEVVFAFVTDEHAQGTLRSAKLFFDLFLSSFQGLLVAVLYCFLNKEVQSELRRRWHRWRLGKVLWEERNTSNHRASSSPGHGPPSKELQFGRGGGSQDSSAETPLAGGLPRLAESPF
For B1, the “EC50 hGlucagon-R (cAMP formation)” value amounted to 0.0281 nM.

Take B2: the “EC50 hGlucagon-R (cAMP formation)” value was 0.0154 nM.

Take B3: the “EC50 hGlucagon-R (cAMP formation)” value stood at 0.261 nM.

As for H[Aib]QGTFTSDLSKQK([γGlu-γGlu-Palmitoyl])DEQRAKLFIEWL[Aib]KGGPSSGAPPPS-NH2 [exendin-4 derivative SEQ ID NO: 15], the “EC50 hGlucagon-R (cAMP formation)” value was found to be 0.0426 nM.

H[Aib]QGTFTSDLSKQK([γGlu-γGlu-Palmitoyl])DEQRAKLFIEWL[Aib]SGGPSSGAPPPS-NH2 [exendin-4 derivative SEQ ID NO: 13]: the “EC50 hGlucagon-R (cAMP formation)” value amounted to 0.0228 nM.

As for B4, the “EC50 hGlucagon-R (cAMP formation)” value was found to be 0.0524 nM.

On to B5, for which the “EC50 hGlucagon-R (cAMP formation)” value is 0.13 nM.

The target of another experiment is human GLP-1 receptor (human, UniProt P43220 24-463). Kind of experiment: cell-based or functional assay.
Consider B1, for which the “EC50 hGLP-1R (cAMP formation)” value is 0.0023 nM.

In the case of B2, the “EC50 hGLP-1R (cAMP formation)” value came to 0.0064 nM.

B3: the “EC50 hGLP-1R (cAMP formation)” value turned out to be 0.0103 nM.

Consider B4, for which the “EC50 hGLP-1R (cAMP formation)” value was 0.0035 nM.

B5: the “EC50 hGLP-1R (cAMP formation)” value amounted to 0.0037 nM.

For the origin of these results see US20150315260A1 (Sanofi, published 2015).
